# According to publication PMC11031989, “Structural determinants for activation of the Tau kinase CDK5 by the serotonin receptor 5-HT7R” (Cell Communication and Signaling : CCS, 2024):
# Experiments:
# [1] = target: T1, mCherry-tagged CDK5 (cyclin-dependent kinase 5) (UniProt Q00535 1-292); test: co-IP; N1E-115 cells co-transfected with mCherry-tagged CDK5 and HA-tagged 5-HT7R constructs; IP with anti-mCherry antibody, Western blot with anti-HA antibody; ratio of co-precipitated receptor normalized to the WT sample; also done after knock-down of Gαs by shRNA (Additional file 5); conditions: partners not purified
# T1 construct: Cyclin-dependent kinase 5 (CDK5); Printed both as CDK5-mCherry and as mCherry-CDK5; also called CDK5-mCherry; mCherry-CDK5; source: N1E-115 cells, transfected, in lysate
# [2] = target: T1, mCherry-tagged CDK5 (cyclin-dependent …); test: cell-based or functional assay
Binder,"co-precipitated receptor, normalized to WT [1] [%]","phosphorylation of endogenous CDK5 at S159 (read-out for CDK5 activation) in N1E-115 cells expressing the HA-tagged receptor, % of WT [2] [%]"
"HA-tagged 5-HT7R (serotonin receptor 7), wild type (receptor, UniProt P32304 1-448, looked up, Serotonin receptor 7 (5-HT7R), wild type; pcDNA3.1(+) vector; also called 5-HT7R WT; WT; source: N1E-115 cells, transfected, in lysate; not shown: HA, N-terminal, kept) MMDVNSSGRPDLYGHLRSLILPEVGRRLQDLSPDGGAHSVVSSWMPHLLSGFPEVTASPAPTWDAPPDNVSGCGEQINYGRVEKVVIGSILTLITLLTIAGNCLVVISVCFVKKLRQPSNYLIVSLALADLSVAVAVMPFVSVTDLIGGKWIFGHFFCNVFIAMDVMCCTASIMTLCVISIDRYLGITRPLTYPVRQNGKCMAKMILSVWLLSASITLPPLFGWAQNVNDDKVCLISQDFGYTIYSTAVAFYIPMSVMLFMYYQIYKAARKSAAKHKFSGFPRVQPESVISLNGVVKLQKEVEECANLSRLLKHERKNISIFKREQKAATTLGIIVGAFTVCWLPFFLLSTARPFICGTSCSCIPLWVERTCLWLGYANSLINPFIYAFFNRDLRTTYRSLLQCQYRNINRKLSAAGMHEALKLAERPERSEFVLQNCDHCGKKGHDT",100,–
"HA-tagged 5-HT7R F281A (receptor, UniProt P32304 1-448, looked up, Serotonin receptor 7 (5-HT7R) with F281A in intracellular loop 3; Primers are in Additional file 1; source: N1E-115 cells, transfected, in lysate; not shown: HA, N-terminal, kept) MMDVNSSGRPDLYGHLRSLILPEVGRRLQDLSPDGGAHSVVSSWMPHLLSGFPEVTASPAPTWDAPPDNVSGCGEQINYGRVEKVVIGSILTLITLLTIAGNCLVVISVCFVKKLRQPSNYLIVSLALADLSVAVAVMPFVSVTDLIGGKWIFGHFFCNVFIAMDVMCCTASIMTLCVISIDRYLGITRPLTYPVRQNGKCMAKMILSVWLLSASITLPPLFGWAQNVNDDKVCLISQDFGYTIYSTAVAFYIPMSVMLFMYYQIYKAARKSAAKHKFSGAPRVQPESVISLNGVVKLQKEVEECANLSRLLKHERKNISIFKREQKAATTLGIIVGAFTVCWLPFFLLSTARPFICGTSCSCIPLWVERTCLWLGYANSLINPFIYAFFNRDLRTTYRSLLQCQYRNINRKLSAAGMHEALKLAERPERSEFVLQNCDHCGKKGHDT",73.8,45.7
"HA-tagged 5-HT7R F278A;F281A (receptor, UniProt P32304 1-448, looked up, Serotonin receptor 7 (5-HT7R) with F278A and F281A in intracellular loop 3; Primers are in Additional file 1; also called F278;F281A; source: N1E-115 cells, transfected, in lysate; not shown: HA, N-terminal, kept) MMDVNSSGRPDLYGHLRSLILPEVGRRLQDLSPDGGAHSVVSSWMPHLLSGFPEVTASPAPTWDAPPDNVSGCGEQINYGRVEKVVIGSILTLITLLTIAGNCLVVISVCFVKKLRQPSNYLIVSLALADLSVAVAVMPFVSVTDLIGGKWIFGHFFCNVFIAMDVMCCTASIMTLCVISIDRYLGITRPLTYPVRQNGKCMAKMILSVWLLSASITLPPLFGWAQNVNDDKVCLISQDFGYTIYSTAVAFYIPMSVMLFMYYQIYKAARKSAAKHKASGAPRVQPESVISLNGVVKLQKEVEECANLSRLLKHERKNISIFKREQKAATTLGIIVGAFTVCWLPFFLLSTARPFICGTSCSCIPLWVERTCLWLGYANSLINPFIYAFFNRDLRTTYRSLLQCQYRNINRKLSAAGMHEALKLAERPERSEFVLQNCDHCGKKGHDT",64.5,49.2
